Laboratory results taken from PMC5500548, “Facile Control over the Supramolecular Ordering of Self-assembled Peptide Scaffolds by Simultaneous Assembly with a Polysacharride” (Scientific Reports, 2017).
No end group written: not given here. *: point of attachment. Fmoc = O=C(OCC1c2ccccc2-c2ccccc21)*

Target: the molecule itself
Assay: transmission electron microscopy + atomic force microscopy; hydrogel of 10 mg/mL Fmoc-FRGDF formed by pH switch to pH 7.4, PBS; dried, negatively stained (TEM) or on HOPG (AFM)

B1: Fmoc-FRGDF (peptide)
peptide: Fmoc-FRGDF
notes: the Fmoc group is kept on the N-terminus; Low molecular weight gelator; also called Fluorenylmethoxycarbonyl (Fmoc) pentapeptide; SAP; source: synthetic peptide (solid phase Fmoc peptide synthesis)
binding result: binds
